Test results from patent publication US20170349669A1 (Hoffmann-La Roche, published 2017).
Read-outs that look alike come from different tables or passages of the source.

T1: human VEGFA-121-His (human, UniProt P15692-9 27-147)
T1 construct: Captured on an anti-His antibody surface; P15692 is the canonical VEGF-A entry, and the 121 isoform is one of its splice forms; also called VEFGA-121-His; not shown: His tag
T1 sequence (looked up): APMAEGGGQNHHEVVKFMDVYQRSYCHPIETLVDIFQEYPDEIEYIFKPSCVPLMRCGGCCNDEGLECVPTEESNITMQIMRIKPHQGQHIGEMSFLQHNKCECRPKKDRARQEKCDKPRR

T2: human Ang-2-RBD-Fc (human, UniProt O15123 275-496, limits assumed)
T2 construct: domain: RBD; Used as analyte in solution; The KD is called apparent; not shown: Fc part
T2 sequence (looked up): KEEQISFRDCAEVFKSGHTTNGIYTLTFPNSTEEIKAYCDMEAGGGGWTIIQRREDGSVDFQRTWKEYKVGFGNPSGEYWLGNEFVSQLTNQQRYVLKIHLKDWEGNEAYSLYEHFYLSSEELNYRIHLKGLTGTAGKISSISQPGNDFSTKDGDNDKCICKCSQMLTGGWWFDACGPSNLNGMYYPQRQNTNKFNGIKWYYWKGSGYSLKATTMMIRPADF


Tests used:
human VEGFA-121-His [1] = target: T1, human VEGFA-121-His; assay: SPR Biacore T200, VEGFA-121-His captured via anti-His, antibody as analyte, 1:1 Langmuir
Procedure: (§1) Binding of indicated antibodies to human VEGFA-121 was investigated by surface plasmon resonance using a BIACORE® T200 instrument (GE Healthcare). Around 10000 (RU) of anti His antibody (1 μg/ml anti His antibody; Order Code: 28995056; GE Healthcare Bio-Sciences AB, Sweden) were coupled on a Series S CM5 chip (GE Healthcare BR-1005-30) at pH 5.0 by using an amine coupling kit supplied by the GE Healthcare. HBS-N (10 mM HEPES, 150 mM NaCl pH 7.4, GE Healthcare) was used as running buffer during the immobilization procedure. For the following kinetic characterization, sample and running buffer was PBS-T (10 mM phosphate buffered saline including 0.05% Tween20) at pH 7.4. The flow cell was set to 25° C.—and the sample block set to 12° C.—and primed with running buffer twice prior to kinetic characterization.
(§2) VEFGA-121-His was captured by injecting a 0.5 μg/ml solution for 30 sec at a flow of 5 μl/min. The association was measured by injection of the indicated antibodies in various concentrations in solution for 180 sec at a flow of 30 μl/min starting with 1000 nM in 1:3 serial dilutions. The dissociation phase was monitored for up to 600 sec and triggered by switching from the sample solution to running buffer. The surface was regenerated by 60 sec washing with a Glycine pH 1.5 solution at a flow rate of 30 μl/min. Bulk refractive index differences were corrected by subtracting the response obtained from a anti His antibody surface. Blank injections are also subtracted (=double referencing). For calculation of KD and other kinetic parameters the Langmuir 1:1 model was used.

human VEGFA-121-His [2] = target: T1, human VEGFA-121-His; assay: as above; remark: listed apart in the source
Procedure: as §1, §2

human Ang-2-RBD-Fc [3] = target: T2, human Ang-2-RBD-Fc; assay: SPR Biacore T200, apparent KD, antibody captured via anti-human F(ab')2, Ang2-RBD-Fc as analyte
Procedure: (§3) Binding of indicated antibodies to human Ang-2-RBD-Fc was investigated by surface plasmon resonance using a BIACORE® T200 instrument (GE Healthcare). Around 8000 (RU) of goat anti human F(ab′)₂ (10 μg/ml anti human F(ab)′₂; Order Code: 28958325; GE Healthcare Bio-Sciences AB, Sweden) were coupled on a Series S CM5 chip (GE Healthcare BR-1005-30) at pH 5.0 by using an amine coupling kit supplied by the GE Healthcare. HBS-N (10 mM HEPES, 150 mM NaCl pH 7.4, GE Healthcare) was used as running buffer during the immobilization procedure. For the following kinetic characterization, sample and running buffer was PBS-T (10 mM phosphate buffered saline including 0.05% Tween20) at pH 7.4. The flow cell was set to 25° C.—and the sample block set to 12° C.—and primed with running buffer twice prior to kinetic characterization.
(§4) The bispecific antibody was captured by injecting a 5 nM solution for 25 sec at a flow of 5 μl/min. The association was measured by injection of human Ang2-RBD-Fc in various concentrations in solution for 120 sec at a flow of 30 μl/min starting with 100 nM in 1:3 serial dilutions. The dissociation phase was monitored for up to 180 sec and triggered by switching from the sample solution to running buffer. The surface was regenerated by 60 sec washing with a Glycine pH 2.1 solution at a flow rate of 30 μl/min. Bulk refractive index differences were corrected by subtracting the response obtained from a goat anti human F(ab′)₂ surface. Blank injections are also subtracted (=double referencing). For calculation of apparent KD the Langmuir 1:1 model was used.

human Ang-2-RBD-Fc [4] = target: T2, human Ang-2-RBD-Fc; assay: as above; remark: listed apart in the source
Procedure: as §3, §4

Binder	Kd (human VEGFA-121-His [1]) [nM]	Kd (human VEGFA-121-His [2]) [nM]	Kd (human Ang-2-RBD-Fc [3]) [nM]	Kd (human Ang-2-RBD-Fc [4]) [nM]
Ang2VEGF_280 (bispecific antibody, human IgG1, kappa, Bivalent CrossMAb-Fab with four different chains; also called Ang2VEGF-0280) heavy 1: not shown light 1: EVQLVESGGGLVQPGGSLRLSCAASGYTFTNYGMNWVRQAPGKGLEWVGWINTYTGEPTYAADFKRRFTFSLDTSKSTAYLQMNSLRAEDTAVYYCAKYPHYYGSSHWYFDVWGQGTLVTVSSASTKGPSVFPLAPSSKSTSGGTAALGCLVKDYFPEPVTVSWNSGALTSGVHTFPAVLQSSGLYSLSSVVTVPSSSLGTQTYICNVNHKPSNTKVDKKVEPKSC heavy 2: not shown light 2: QPGLTQPPSVSVAPGQTARITCGGNNIGSKSVHWYQQKPGQAPVLVVYDDSDRPSGIPERFSGSNSGNTATLTISRVEAGDEADYYCQVWDSSSDHYVFGTGTKVTVLRTVAAPSVFIFPPSDKKLKSGTASVVCLLNNFYPREAKVQWKVDNALQSGNSQESVTEQDSKDSTYSLSSTLTLSKADYEKHKVYACEVTHQGLSSPVTKSFNRGEC	7	7	3	3
Ang2VEGF_290 (bispecific antibody, human IgG1, kappa, lambda, The Ang2 arm has a lambda light chain; also called Ang2VEGF-0290 (wt); Ang2VEGF-0290) heavy 1: not shown light 1: EVQLVESGGGLVQPGGSLRLSCAASGYTFTNYGMNWVRQAPGKGLEWVGWINTYTGEPTYAADFKRRFTFSLDTSKSTAYLQMNSLRAEDTAVYYCAKYPHYYGSSHWYFDVWGQGTLVTVSSASTKGPSVFPLAPSSKSTSGGTAALGCLVKDYFPEPVTVSWNSGALTSGVHTFPAVLQSSGLYSLSSVVTVPSSSLGTQTYICNVNHKPSNTKVDKKVEPKSC heavy 2: not shown light 2: QPGLTQPPSVSVAPGQTARITCGGNNIGSKSVHWYQQKPGQAPVLVVYDDSDRPSGIPERFSGSNSGNTATLTISRVEAGDEADYYCQVWDSSSDHYVFGTGTKVTVLGQPKAAPSVTLFPPSSEELQANKATLVCLISDFYPGAVTVAWKADSSPVKAGVETTTPSKQSNNKYAASSYLSLTPEQWKSHRSYSCQVTHEGSTVEKTVAPTECS	8		3	
Ang2VEGF_467 (bispecific antibody, human IgG1, kappa, Wild type CH3 domains, no knob-into-hole) heavy 1: not shown light 1: EVQLVESGGGLVQPGGSLRLSCAASGYTFTNYGMNWVRQAPGKGLEWVGWINTYTGEPTYAADFKRRFTFSLDTSKSTAYLQMNSLRAEDTAVYYCAKYPHYYGSSHWYFDVWGQGTLVTVSSASTKGPSVFPLAPSSKSTSGGTAALGCLVKDYFPEPVTVSWNSGALTSGVHTFPAVLQSSGLYSLSSVVTVPSSSLGTQTYICNVNHKPSNTKVDKKVEPKSC heavy 2: not shown light 2: QPGLTQPPSVSVAPGQTARITCGGNNIGSKSVHWYQQKPGQAPVLVVYDDSDRPSGIPERFSGSNSGNTATLTISRVEAGDEADYYCQVWDSSSDHYVFGTGTKVTVLRTVAAPSVFIFPPSDKKLKSGTASVVCLLNNFYPREAKVQWKVDNALQSGNSQESVTEQDSKDSTYSLSSTLTLSKADYEKHKVYACEVTHQGLSSPVTKSFNRGEC		17		0.5
Ang2VEGF_468 (bispecific antibody, human IgG1, kappa, Wild type CH3 domains, no knob-into-hole) heavy 1: not shown light 1: EVQLVESGGGLVQPGGSLRLSCAASGYTFTNYGMNWVRQAPGKGLEWVGWINTYTGEPTYAADFKRRFTFSLDTSKSTAYLQMNSLRAEDTAVYYCAKYPHYYGSSHWYFDVWGQGTLVTVSSASTKGPSVFPLAPSSKSTSGGTAALGCLVKDYFPEPVTVSWNSGALTSGVHTFPAVLQSSGLYSLSSVVTVPSSSLGTQTYICNVNHKPSNTKVDKKVEPKSC heavy 2: not shown light 2: QPGLTQPPSVSVAPGQTARITCGGNNIGSKSVHWYQQKPGQAPVLVVYDDSDRPSGIPERFSGSNSGNTATLTISRVEAGDEADYYCQVWDSSSDHYVFGTGTKVTVLRTVAAPSVFIFPPSDKKLKSGTASVVCLLNNFYPREAKVQWKVDNALQSGNSQESVTEQDSKDSTYSLSSTLTLSKADYEKHKVYACEVTHQGLSSPVTKSFNRGEC		22		0.5
Ang2VEGF_279 (bispecific antibody, human IgG1, kappa, lambda, The Ang2 arm has a lambda light chain; also called Ang2VEGF-0279) heavy 1: not shown light 1: EVQLVESGGGLVQPGGSLRLSCAASGYTFTNYGMNWVRQAPGKGLEWVGWINTYTGEPTYAADFKRRFTFSLDTSKSTAYLQMNSLRAEDTAVYYCAKYPHYYGSSHWYFDVWGQGTLVTVSSASTKGPSVFPLAPSSKSTSGGTAALGCLVKDYFPEPVTVSWNSGALTSGVHTFPAVLQSSGLYSLSSVVTVPSSSLGTQTYICNVNHKPSNTKVDKKVEPKSC heavy 2: not shown light 2: QPGLTQPPSVSVAPGQTARITCGGNNIGSKSVHWYQQKPGQAPVLVVYDDSDRPSGIPERFSGSNSGNTATLTISRVEAGDEADYYCQVWDSSSDHYVFGTGTKVTVLGQPKAAPSVTLFPPSSKKLQANKATLVCLISDFYPGAVTVAWKADSSPVKAGVETTTPSKQSNNKYAASSYLSLTPEQWKSHRSYSCQVTHEGSTVEKTVAPTECS	6		5	
